Test results: publication PMC13233820, “Recruitment of Mre11 to recombination sites during meiosis” (Nature Communications, 2026)

Tests used:
Mer2 = assay: Co-immunoprecipitation of Mer2 and Mre11 from meiotic extracts; assay type: binding, Saccharomyces cerevisiae; settings: Supplementary Fig. 6i
Method: Meiotic cultures were collected at 4 h after transferring to SPM, washed once in ice-cold 1 × PBS containing 1 mM PMSF, following which, they were transferred to 1.5 ml screw-cap tubes and were either snap frozen in liquid nitrogen or processed directly. […] 900 µL of 0.5 mm zirconium beads were added to the cell pellet, and cells were lyzed in a Precellys bead beater at 7200 rpm for 12 × 15 seconds while chilling the tubes for 2 min on ice between each cycle. Cell extract was collected by poking a hole at the bottom of the tubes while placing the tubes on top of another 1.5 ml tubes and centrifuging at 800 × g for 1 min at 4 °C. Beads were washed with 500 µl of IP buffer and collected in the same tube. Cell lysate was spun again at 800 g for 5 min at 4 °C and supernatant was transferred to 15 mL tubes. Sonication was performed three times in ice in Bioruptor Plus at intensity (M) in a 30 s ON / 30 s OFF cycle for 15 min each time. The lysate was centrifuged at 15.000 g at 4 °C for 10 min and the supernatant (~ 800 µl) was transferred to new 1.5 ml tubes. 80 µL (10%) was collected as Input fraction and snap frozen. 1 µL of mouse monoclonal anti-myc primary antibody was added to each tube, and tubes were rotated overnight at 5 rpm at 4 °C. The following day, Dynabeads Protein G (30 µl per tube) were added to Protein LoBind tubes and washed two times with 1 mL IP buffer containing 1 mM PMSF using DynaMag2. The lysates with the antibody were transferred to the tubes containing Dynabeads and were rotated for 3-4 hours at 5 rpm at 4 °C, following which, the Dynabeads were collected and washed four times with 1 ml IP buffer containing 1 mM PMSF. Finally, 60 µL IP buffer and 20 µL 4 × Lammelli buffer was added to the tubes and incubated for 5 mins at 95 °C while shaking at 1000 rpm. TCA extraction was performed on the input fractions by adding 8 µL 100 % TCA (final 10 % TCA) and incubating on ice for 30 mins. Precipitated proteins were solubilized in 40 µL 1 × Laemmli sample buffer incubated for 5 mins at 95 °C. Immunoblotting was performed using the protocol described below.

[1] = system: supercoiled pUC19 plasmid DNA; assay: In vitro condensation assay of Mre11 (fluorescence microscopy); assay type: biochemical; settings: eGFP-tagged truncations with plasmid DNA
Method: Fig. 1 Mre11 and the MRX complex assemble DNA-dependent condensates in vitro. a, c Effect of the presence of plasmid DNA on condensation of (a) Alexa488-labeled Mre11 (n = 11 and 9 fields of view for reactions without and with DNA, respectively) and (c) eGFP-tagged MRX (n = 11 (- DNA) and 9 ( + DNA)). Experiments were performed without PEG. b, d Effect of DNase I, in the absence of PEG, on (b) Mre11 (n = 9 (no treatment) and 11 (DNase I)) and (d) MRX (n = 9 (no treatment) and 11 (DNase I)) condensates. Condensates were pre-assembled for 20 min with 5.7 nM pUC19 prior to challenge. Quantification represents total foci intensity (green) in a field of view and total number of foci per 1000 µm^2 (magenta). Foci intensity is normalized to the mean intensity of samples with DNA for (a, c) and untreated samples for (b, d). […] Quantification represents total foci intensity (green) in a field of view (normalized to the mean of + PEG images) and total number of foci per 1000 µm^2 (magenta). […]
Fig. 2 The C-terminal IDR of Mre11 is required for condensation. a AlphaFold2 predicted model of Mre11 (AF-P32829-F1-v4). […] Quantification represents total fluorescence intensity (green) in a field of view and total number of foci per 1000 µm^2 (magenta). […]

pUC19 plasmid substrate = assay: Gel shift assay, plasmid DNA binding; settings: 1 nM pUC19, 25 mM HEPES-HCl pH 7.5, 100 mM NaCl, 5 mM EDTA, 30 °C 30 min
Method: Proteins were diluted to their appropriate working concentrations in their respective storage buffers. […] Reactions were assembled at 30 °C for 30 mins and resolved in a 1% agarose (SeaKem LE Agarose, Lonza) at 60 V for 120 mins at 4 °C. Gels were stained with SYBR Gold Nucleic Acid Gel Stain (S11497, Invitrogen) for 40 mins and visualized with Amersham Typhoon biomolecular imager (Cytiva).

spores of yeast strains = assay: Spore viability assay; assay type: cell-based, Saccharomyces cerevisiae; settings: Fig. 7c
Method: For the spore viability assay, a small patch of the diploid strain was incubated in sporulation media (2% potassium acetate) at 30 °C, 250 rpm for two days. After two days, 1 mL of sporulating culture was centrifuged, and all but 200 µL of supernatant was removed. To digest yeast cells, 2 µL of concentrated sporulation culture was mixed with 100 µL 1 M sorbitol and 1 µL 10 mg/ml zymolyase and incubated at 30 °C for 21 mins. 20 µL of digested cells were dropped on a YPD plate, left to dry for about 10 mins, and were micromanipulated using a tetrad dissector (MSM400, Singer Instruments). At least 20 tetrads were dissected for each assay, and spore viability was assessed by calculating the number of viable spores after 2 days of incubation at 30 °C.

B1: Mre11-ΔC15: Mre11 lacking the C-terminal 15-residue α-helix (protein)
chain: MDYPDPDTIRILITTDNHVGYNENDPITGDDSWKTFHEVMMLAKNNNVDMVVQSGDLFHVNKPSKKSLYQVLKTLRLCCMGDKPCELELLSDPSQVFHYDEFTNVNYEDPNFNISIPVFGISGNHDDASGDSLLCPMDILHATGLINHFGKVIESDKIKVVPLLFQKGSTKLALYGLAAVRDERLFRTFKDGGVTFEVPTMREGEWFNLMCVHQNHTGHTNTAFLPEQFLPDFLDMVIWGHEHECIPNLVHNPIKNFDVLQPGSSVATSLCEAEAQPKYVFILDIKYGEAPKMTPIPLETIRTFKMKSISLQDVPHLRPHDKDATSKYLIEQVEEMIRDANEETKQKLADDGEGDMVAELPKPLIRLRVDYSAPSNTQSPIDYQVENPRRFSNRFVGRVANGNNVVQFYKKRSPVTRSKKSGINGTSISDRDVEKLFSESGGELEVQTLVNDLLNKMQLSLLPEVGLNEAVKKFVDKDEKTALKEFISHEISNEVGILSTNEEFLRTDDAEEMKALIKQVKRANSVRPTPPKENDETNFAFNGNGLDSFRSSNREVRTGSPDITQSHVDNESRITHISQAESSKPTSKPKRVRTATKKKIPAFSDSTVISDAENELGDNNDAQDDVDIDENDIIMVSTDEEDASYGLLNGRKTKTKTRPAASTKTASRRGKGRASRT
modifications: left off: Gal4 activation domain (from the vector pGAD-C1), end not stated, kept
notes: Mre11 lacking the C-terminal 15-residue α-helix
B1 was tested, and the “Normalized to WT Mer2 IP” value (Mer2; Experiment 1) was 68.56.

B2: Mre11-IDR: Mre11 disordered region alone (524-677) (protein, UniProt P32829 524-677, looked up, fragment)
chain: NSVRPTPPKENDETNFAFNGNGLDSFRSSNREVRTGSPDITQSHVDNESRITHISQAESSKPTSKPKRVRTATKKKIPAFSDSTVISDAENELGDNNDAQDDVDIDENDIIMVSTDEEDASYGLLNGRKTKTKTRPAASTKTASRRGKGRASRT
For B2, the “Condensation of Mre11 truncations (in words)” value [1] was “failed to form condensates” and the “DNA-binding activity (in words)” value (pUC19 plasmid substrate) was “reduced DNA binding as compared to the wild type or Mre11^ΔIDR”.

B3: Mer2-EQEK (protein)
chain: MVARGRTDEISTDVSEANSEHSLMITETSSPFRSIFSHSGKVANAGALEASDKAILAWAGALELESMELRENSDKLIKVLNENSKTLCKSLNKFNQLLEQDAATNGNVKTLIKDLASQIENQLDKVSTAMLSKGDEKKTKSDSSYRQVLVEEISRYNSKITRHVTNKQHETEKSMRCTQEMLFNVGSQLEDVHKVLLSLSKDMHSLQTRQTALEMAFREKADHAYDRPDVSLNGTTLLHDMDEAHDKQRKKSVPPPRMMVTRSMKRRRSSSPTLSTSQNHNSEDNDDASHRLKRAARTIIPWEELRPDTLESEL
modifications: left off: V5, internal (after residue 248), kept
In the case of B3, the “Normalized to WT Mer2 IP” value (Mer2; Experiment 1) is reported as 56.73 and the “Normalized to WT Mer2 IP” value (Mer2; Experiment 2) is reported as 70.72.

B4: Mre11-myc (WT) (protein, UniProt P32829 1-692, looked up)
Double-strand break repair …: MDYPDPDTIRILITTDNHVGYNENDPITGDDSWKTFHEVMMLAKNNNVDMVVQSGDLFHVNKPSKKSLYQVLKTLRLCCMGDKPCELELLSDPSQVFHYDEFTNVNYEDPNFNISIPVFGISGNHDDASGDSLLCPMDILHATGLINHFGKVIESDKIKVVPLLFQKGSTKLALYGLAAVRDERLFRTFKDGGVTFEVPTMREGEWFNLMCVHQNHTGHTNTAFLPEQFLPDFLDMVIWGHEHECIPNLVHNPIKNFDVLQPGSSVATSLCEAEAQPKYVFILDIKYGEAPKMTPIPLETIRTFKMKSISLQDVPHLRPHDKDATSKYLIEQVEEMIRDANEETKQKLADDGEGDMVAELPKPLIRLRVDYSAPSNTQSPIDYQVENPRRFSNRFVGRVANGNNVVQFYKKRSPVTRSKKSGINGTSISDRDVEKLFSESGGELEVQTLVNDLLNKMQLSLLPEVGLNEAVKKFVDKDEKTALKEFISHEISNEVGILSTNEEFLRTDDAEEMKALIKQVKRANSVRPTPPKENDETNFAFNGNGLDSFRSSNREVRTGSPDITQSHVDNESRITHISQAESSKPTSKPKRVRTATKKKIPAFSDSTVISDAENELGDNNDAQDDVDIDENDIIMVSTDEEDASYGLLNGRKTKTKTRPAASTKTASRRGKGRASRTPKTDILGSLLAKKRK
modifications: myc tag
In the case of B4, the Visible spore colonies (spores of yeast strains; spores placed: 144 (WT), 80 (ΔC15), 88 (SIM), 80 (ΔC15+ SIM)) is reported as 140 and the “Spore Viability” value (spores of yeast strains; visible spore colonies of spores placed) is reported as 97.22.
